Assays:
[1] = biological target: T1, CAP (cAMP receptor protein) (Escherichia coli, UniProt P0ACJ8 P0ACJ8:2-210); test: competition; unlabeled duplex blocks CAP detection; 200 uM cAMP, 50 mM NaCl; settings: chain copies: 2
Text: (§1) The fluorescence donor (fluorescein) and the fluorescence acceptor (dabcyl) were introduced into DNA fragments using commercially available dT-fluorescein and dT-dabcyl (Glen Research, Sterling, Va.), wherein dT stands fordeoxythymidine. The oligonucleotides were purified using reverse phase chromatography on a RPC column (Pharmacia) as previously described (Heyduk, E., and Heyduk, T. Anal. Biochem. 248, 216-227, 1997). The fractions containing the oligonucleotides were dried in a vacuum centrifuge concentrator and subsequently dissolved in 50 μl of water. The concentration of the stock solutions of oligonucleotides was determined by recording the UV-VIS absorption spectrum of a small aliquot of the stock solution diluted to 400 μl. The CAP1 oligonucleotide (SEQ ID NO:1) was hybridized with CAP4 oligonucleotide (SEQ ID NO:4) to generate the CAP1/CAP4 duplex and CAP2 oligonucleotide (SEQ ID NO:2) was hybridized with CAP3 oligonucleotide (SEQ ID NO:3) to generate the CAP2/CAP3 duplex. […] All subsequent fluorescence measurements were performed at 25° C. in 50-mM Tris/HCl (pH 8.0), 100 mM NaCl (or 50 mM NaCl where indicated), 1 mM EDTA, 0.1 mg/ml BSA, and 200 μM cAMP in 200 μl quartz cuvette using Aminco-Bowman Series 2 spectrofluorometer. The excitation wavelength was at 490 nm and the emission was recorded from 500 to 650 nm. […]

[2] = biological target: p53 (Homo sapiens, UniProt P04637 P04637:1-393); test: FRET; 0-130 nM p53, quenching proportional to p53, 50 mM NaCl, 100 nM nonspecific 30-bp DNA, 25 C; settings: tags: full-length, expressed in bacteria (gift of K. S. Matthews); chain copies: 4; label: dT-fluorescein (P2), dT-dabcyl (P4); two half-site duplexes with short complementary overhangs
p53, sequence (P04637 whole entry, one chain of several): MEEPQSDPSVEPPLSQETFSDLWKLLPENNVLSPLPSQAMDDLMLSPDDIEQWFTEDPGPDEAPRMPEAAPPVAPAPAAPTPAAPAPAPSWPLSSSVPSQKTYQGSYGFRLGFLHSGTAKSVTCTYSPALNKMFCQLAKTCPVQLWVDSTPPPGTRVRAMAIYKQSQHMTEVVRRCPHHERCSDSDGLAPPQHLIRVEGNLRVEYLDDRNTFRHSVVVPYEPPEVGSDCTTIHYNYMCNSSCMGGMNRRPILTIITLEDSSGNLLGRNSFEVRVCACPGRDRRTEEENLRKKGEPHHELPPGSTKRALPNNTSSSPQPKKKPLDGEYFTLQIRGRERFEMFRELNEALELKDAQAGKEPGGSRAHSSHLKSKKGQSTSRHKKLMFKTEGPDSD
Procedure: The oligonucleotides were purified using reverse phase chromatography on a RPC column as described previously (Heyduk, E., and Heyduk, supra). The fractions containing the oligonucleotides were dried in Vacuum centrifuge concentrator and were dissolved in 50 μl of water. The concentrations of the stock solutions of oligonucleotides were determined by recording the UV-VIS absorption spectrum of a small aliquot of the stock solution diluted to 400 μl. The P1 oligonucleotide (SEQ ID NO:20) was hybridized with the P4 oligonudeotide (SEQ ID NO:23) to generate the P1/P4 duplex construct and the P2 oligonucleotide (SEQ ID NO:21) was hybridized with the P3 (SEQ ID NO:22) oligonucleotide to generate the P2/P3 duplex construct. For the hybridization, the appropriate oligonucleotides were mixed at 10 μM concentration in 100 μl of 50 mM Tris/HCl (pH 8.0), 100 mM NaCl, 1 mM EDTA, heated for 1 min at 95° C. and then cooled to 25° C. for 1 hr. All subsequent fluorescence measurements were performed at 25° C. in 50-mM potassium phosphate (pH 7.5), 50 mM NaCl, and 0.5 mg/ml BSA containing also 100 nM of a nonspecific 30-bp DNA duplex. The DNA duplexes obtained upon hybridization are illustrated in FIG. 18. The duplexes contain a repeat of 10 bp PuPuPuC(A/T)(T/A)GPyPyPy (SEQ ID NO:24) motif split between the two DNA duplexes. […]

[3] = biological target: T1, CAP (cAMP receptor protein); test: FRET; two-color assay, CAP only, no change in fluorescein signal; 200 uM cAMP; settings: chain copies: 2; label: dT-fluorescein (TRP2), dT-dabcyl (TRP4); two half-site duplexes with short complementary overhangs
Procedure: Nucleic acid constructs specific for each of the proteins to be detected may be labeled with probes that emit light at different wavelengths. In this example, the reaction mixture contained nucleic acid constructs labeled with 7-diethylaminocoumarin-3-carboxylic acid for detecting CAP protein (described in EXAMPLE 2) and nucleic acid constructs labeled with fluorescein for detecting TrpR protein (described in EXAMPLE 6). Specifically, 100 nM CAP5/CAP3, 120 nM CAP1/CAP4, 100 nM TRP2/TRP3, and 120 nM TRP1/TRP4 duplexes were present in the reaction mixture.
All measurements were performed at 15° C. in 10 mM potassium phosphate (pH 7.6), 50 mM NaCl, 0.1 mM EDTA, 4 mM tryptophan, 200 μM cAMP, 10% glycerol, 0.01% sodium azide and 1.0 mg/ml BSA. The fluorescence spectra with the excitation at 433 nm (excitation of 7-diethylaminocoumarin-3-carboxylic acid, FIG. 17A) and with the excitation at 490 nm (excitation of fluorescein, FIG. 17B) were recorded in the absence of the proteins (curves 1), in the presence of CAP only (curves 2), in the presence of TrpR only (curves 3), and in the presence of both CAP and TrpR (curves 4). In the presence of only CAP there was no change in the fluorescein signal (FIG. 17B, curve 2) whereas about 60% quenching of the 7-diethylaminocoumarin-3-carboxylic acid signal was observed (FIG. 17A, curve 2). […]

[4] = biological target: T2, Trp repressor (TrpR) (UniProt P0A881 P0A881:2-108); test: FRET; two-color assay, TrpR only, no change in coumarin signal; 15 C
[5] = biological target: T2, Trp repressor (TrpR); test: FRET; specificity control
[6] = biological target: Lac repressor (LacR) (UniProt P03023 P03023:1-360); test: FRET; 0-200 nM LacR, saturation ~150 nM, 50 nM DNA, 25 C; specificity confirmed with 5 mM IPTG; settings: chain copies: 4; label: dT-fluorescein (LAC2), dT-dabcyl (LAC4); two half-site duplexes with short complementary overhangs
Lac repressor (LacR), sequence (P03023 whole entry, one chain of several): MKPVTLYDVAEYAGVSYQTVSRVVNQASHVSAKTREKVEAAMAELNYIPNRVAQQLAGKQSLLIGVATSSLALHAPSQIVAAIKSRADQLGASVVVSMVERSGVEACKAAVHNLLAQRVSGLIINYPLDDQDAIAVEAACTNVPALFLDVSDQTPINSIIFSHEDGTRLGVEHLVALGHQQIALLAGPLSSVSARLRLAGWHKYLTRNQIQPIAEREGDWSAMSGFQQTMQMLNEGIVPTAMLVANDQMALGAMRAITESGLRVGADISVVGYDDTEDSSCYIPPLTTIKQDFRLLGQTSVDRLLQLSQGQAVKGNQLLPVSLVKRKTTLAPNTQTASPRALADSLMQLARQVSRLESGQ
Procedure: The oligonucleotides were purified using reverse phase chromatography on RPC column (Amersham Pharmacia Biotech, Piscataway, N.J.) as previously described (Heyduk, E., and Heyduk, T. Anal. Biochem. 248, 216-227, 1997). The fractions containing the oligonucleotides were dried in Vacuum centrifuge concentrator and were dissolved in 50 μl of water. The concentration of the stock solutions of oligonucleotides was determined by recording the UV-VIS absorption spectrum of a small aliquot of the stock solution diluted to 400 μl. The LAC1 oligonucleotide (SEQ ID NO:12) was hybridized with the LAC4 oligonucleotide (SEQ ID NO:15) to generate the LAC1/LAC4 construct and the LAC2 oligonucleotide (SEQ ID NO:13) was hybridized with the LAC3 oligonucleotide (SEQ ID NO:14) to generate the LAC2/LAC3 construct. […] All subsequent fluorescence measurements were performed at 25° C. in 50 mM Tris/HCl (pH 8.0), 100 mM NaCl, 1 mM EDTA, and 0.1 mg/ml BSA. […]
The fluorescence spectra of 50 nM of LAC1/LAC4 plus LAC2/LAC3 were recorded in the absence of LacR (FIG. 14, curve 1) and in the presence of varying amounts of LacR in a range from 0-200 nM (FIG. 14, curves 2-7). Fluorescence signal quenching was proportional to the amount of LacR added to the reaction mixture, with saturation occurring at approximately 150 nM of LacR (FIG. 14, inset). […]

[7] = biological target: T2, Trp repressor (TrpR); test: FRET; 400 nM TrpR, no change
[8] = biological target: T1, CAP (cAMP receptor protein); test: competition; no effect up to 194.2 nM; 200 uM cAMP, 50 mM NaCl; settings: chain copies: 2
Text: as §1

[9] = biological target: T1, CAP (cAMP receptor protein); test: ratiometric FRET; 0-150 nM CAP, 200 uM cAMP, 25 C; settings: chain copies: 2; label: 7-diethylaminocoumarin-3-carboxylic acid on amino-dT (CAP6), dT-fluorescein (CAP2); two half-site duplexes with short complementary overhangs
Procedure: In a second experiment (FIG. 9), the pair of CAP6/CAP1 and CAP2/CAP3 nucleic acid duplexes were tested for the performance in CAP assay. In this assay format, the 7-diethylaminocoumarin-3-carboxylic acid present in the CAP6/CAP1 duplex functioned as a fluorescence donor and the fluorescein present in the CAP2/CAP3 duplex functioned as an acceptor. In this case, both the donor as well as the acceptor are fluorescent. The experiment was performed at 25° C. in 50 mM Tris/HCl (pH 8.0), 100 mM NaCl, 1 mM EDTA, 0.1 mg/ml BSA, and 200 μM cAMP. […] The shoulder observed at about 520 nm is due to the residual emission of fluorescein, which is also to a small extent excited at 433 nm. Upon addition of varying amounts of CAP in a range from 0 to 150 nM (curves 2 -9), a pronounced quenching of the peak at 475 nm and a pronounced enhancement of the peak at 520 nm is observed. Recall that the emission maximum of fluorescein is 520 nm. […] Also, as shown in the inset of FIG. 9, the ratio between the fluorescence intensities at 520 nm and 475 nm may be used to determine the concentration of DNA binding proteins. This ratiometric mode of signal detection could be particularly useful since it would be less prone to trivial errors (such as pipetting errors, general quenching by some unrelated compounds present in the assayed sample).

T1 sequence (P0ACJ8 2-210, one chain of several): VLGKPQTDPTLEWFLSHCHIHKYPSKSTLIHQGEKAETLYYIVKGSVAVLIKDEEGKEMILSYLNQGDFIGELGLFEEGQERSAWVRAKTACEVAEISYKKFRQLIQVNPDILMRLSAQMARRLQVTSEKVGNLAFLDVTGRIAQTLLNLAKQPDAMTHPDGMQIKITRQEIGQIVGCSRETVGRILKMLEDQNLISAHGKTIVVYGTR

B1: SP1 duplex (dsDNA)
DNA 1: CCTAAAATGTGATCTAGATCACATTTATTG
DNA 2: CAATAAATGTGATCTAGATCACATTTTAGG
binding result [1]: binds

B2: P1/P4 + P2/P3 (dsDNA)
DNA 1: GCATCGGTCACAGACA
DNA 2: TGTCTAGGCATGTCTGTGACCGATGC
DNA 3: TGCCTAGACATGCCTTGCAGTCTCGA
DNA 4: TCGAGACTGCAAGGCA
modifications: [strand 2: T5 (N, modified T); strand 3: T5 (N, modified T)]
binding result [2]: binds

B3: TRP1/TRP4 + TRP2/TRP3 (dsDNA)
DNA 1: GAGATCTATCGAACTA
DNA 2: GTTTACTAGTTCGATAGATCTC
DNA 3: GTAAACTAGTACGAAACTAGAG
DNA 4: CTCTAGTTTCGTACTA
modifications: [strand 2: T2 (N, modified T); strand 3: T2 (N, modified T)]
binding result [3]: no binding

B4: CAP5/CAP3 + CAP4/CAP1 (dsDNA)
DNA 1: AGTAGATCACATTTTAGGCACC
DNA 2: GGTGCCTAAAATGTGA
DNA 3: TCTACTTCACATTTATTGCGTT
DNA 4: AACGCAATAAATGTGA
modifications: [strand 1: T3 (N, modified T); strand 3: T3 (N, modified T)]
binding result [4]: no binding

B5: LAC1/LAC4 + LAC2/LAC3 (dsDNA)
DNA 1: GGTGTGTGGAATTGTGA
DNA 2: ATACGCTCACAATTCCACACACC
DNA 3: GCGTATAACAATTTCACACAGG
DNA 4: CTTGTGTGAAATTGTT
modifications: [strand 2: T2 (N, modified T); strand 3: T4 (N, modified T)]
binding result [5]: no binding | binding result [6]: binds

B6: CAP1/CAP4 + CAP2/CAP3 (dsDNA)
DNA 1: AACGCAATAAATGTGA
DNA 2: TCTACTTCACATTTATTGCGTT
DNA 3: AGTAGATCACATTTTAGGCACC
DNA 4: GGTGCCTAAAATGTGA
modifications: [strand 2: T3 (N, modified T); strand 3: T3 (N, modified T)]
binding result [7]: no binding

B7: NSP1 duplex (dsDNA)
DNA 1: GCATCGGTCACTGCAGTCTCGACAGCTACG
DNA 2: CGTAGCTGTCGAGACTGCAGTGACCGATGC
binding result [8]: no binding

B8: CAP6/CAP1 + CAP2/CAP3 (dsDNA)
DNA 1: TCTACTTCACATTTATTGCGTT
DNA 2: AACGCAATAAATGTGA
DNA 3: AGTAGATCACATTTTAGGCACC
DNA 4: GGTGCCTAAAATGTGA
modifications: [strand 1: T3 (N, modified T); strand 3: T3 (N, modified T)]
binding result [9]: binds
